{
  "source": "paper PMC10786891",
  "about": "“Massively parallel profiling of RNA-targeting CRISPR-Cas13d”",
  "binders": {"B1": {"name": "target 2 MT 5'PFS AUG 3'PFS UAA (mixed)", "RNA 1": "CACCCGUGCAAAAUUGCAGGGGUCUAAAACCUUCUCCAAAUUGUUUCAUCCU", "RNA 2": "GGGAAUGGAUCCACAUCUACGAAUUCAUGAGGAUGAAACAAUUUGGAGAAGUAAAGAUCGGAAGAGCACACGU"}, "B2": {"name": "target 2 MT 5'PFS GCA 3'PFS AGA (mixed)", "RNA 1": "B1 RNA 1", "RNA 2": "B1 RNA 2 with A27G, U28C, G29A, U52A, A53G"}, "B3": {"name": "target 2 MT 5'PFS AUU 3'PFS AAC (mixed)", "RNA 1": "B1 RNA 1", "RNA 2": "B1 RNA 2 with G29U, U52A, A54C"}, "B4": {"name": "target 2 MT 5'PFS AUG 3'PFS UAU (mixed)", "RNA 1": "B1 RNA 1", "RNA 2": "B1 RNA 2 with A54U"}, "B5": {"name": "target 2 MT 5'PFS GGU 3'PFS UAA (mixed)", "RNA 1": "B1 RNA 1", "RNA 2": "B1 RNA 2 with A27G, U28G, G29U"}, "B6": {"name": "target 2 MT 5'PFS AGG 3'PFS CUU (mixed)", "RNA 1": "B1 RNA 1", "RNA 2": "B1 RNA 2 with U28G, U52C, A53U, A54U"}, "B7": {"name": "target 2 MT 5'PFS GCA 3'PFS AGC (mixed)", "RNA 1": "B1 RNA 1", "RNA 2": "B1 RNA 2 with A27G, U28C, G29A, U52A, A53G, A54C"}, "B8": {"name": "target 2 MT 5'PFS AGG 3'PFS CUC (mixed)", "RNA 1": "B1 RNA 1", "RNA 2": "B1 RNA 2 with U28G, U52C, A53U, A54C"}, "B9": {"name": "target 2 MT 5'PFS UAU 3'PFS AAA (mixed)", "RNA 1": "B1 RNA 1", "RNA 2": "B1 RNA 2 with A27U, U28A, G29U, U52A"}, "B10": {"name": "target 2 MT 5'PFS AUG 3'PFS UAC (mixed)", "RNA 1": "B1 RNA 1", "RNA 2": "B1 RNA 2 with A54C"}, "B11": {"name": "target 2 MT 5'PFS UAU 3'PFS AAC (mixed)", "RNA 1": "B1 RNA 1", "RNA 2": "B1 RNA 2 with A27U, U28A, G29U, U52A, A54C"}, "B12": {"name": "target 2 MT 5'PFS UAU 3'PFS AAG (mixed)", "RNA 1": "B1 RNA 1", "RNA 2": "B1 RNA 2 with A27U, U28A, G29U, U52A, A54G"}, "B13": {"name": "target 2 MT 5'PFS CUG 3'PFS UAA (mixed)", "RNA 1": "B1 RNA 1", "RNA 2": "B1 RNA 2 with A27C"}, "B14": {"name": "target 2 MT 5'PFS UGG 3'PFS UCU (mixed)", "RNA 1": "B1 RNA 1", "RNA 2": "B1 RNA 2 with A27U, U28G, A53C, A54U"}, "B15": {"name": "target 2 MT 5'PFS CUA 3'PFS ACC (mixed)", "RNA 1": "B1 RNA 1", "RNA 2": "B1 RNA 2 with A27C, G29A, U52A, A53C, A54C"}, "B16": {"name": "target 1 G5U,U8A (mixed)", "RNA 1": "CACCCGUGCAAAAAUGCAGGGGUCUAAAACUGAGCGGAUAACCUCUCUAUGG", "RNA 2": "GGGAAUGGAUCCACAUCUACGAAUUCGUACCAUAGAGAGGUUAACCUCUCACCGAGAUCGGAAGAGCACACGU"}, "B17": {"name": "target 1 insC 3' of 9,insU 3' of 1 (mixed)", "RNA 1": "B16 RNA 1", "RNA 2": "GGGAAUGGAUCCACAUCUACGAAUUCGUACCAUAGAGAGGUUACUCCGCUCAUCCGAGAUCGGAAGAGCACACGU"}},
  "note": "Numbering of substitutions follows the chain as printed. Numbers in names are those of the source.",
  "data": [
    {"biological_target": "T1, EsCas13d, nuclease-dead (Eubacterium siraeum, UniProt B0MS50, R295A;H300A;R849A;H854A)", "T1 sequence": "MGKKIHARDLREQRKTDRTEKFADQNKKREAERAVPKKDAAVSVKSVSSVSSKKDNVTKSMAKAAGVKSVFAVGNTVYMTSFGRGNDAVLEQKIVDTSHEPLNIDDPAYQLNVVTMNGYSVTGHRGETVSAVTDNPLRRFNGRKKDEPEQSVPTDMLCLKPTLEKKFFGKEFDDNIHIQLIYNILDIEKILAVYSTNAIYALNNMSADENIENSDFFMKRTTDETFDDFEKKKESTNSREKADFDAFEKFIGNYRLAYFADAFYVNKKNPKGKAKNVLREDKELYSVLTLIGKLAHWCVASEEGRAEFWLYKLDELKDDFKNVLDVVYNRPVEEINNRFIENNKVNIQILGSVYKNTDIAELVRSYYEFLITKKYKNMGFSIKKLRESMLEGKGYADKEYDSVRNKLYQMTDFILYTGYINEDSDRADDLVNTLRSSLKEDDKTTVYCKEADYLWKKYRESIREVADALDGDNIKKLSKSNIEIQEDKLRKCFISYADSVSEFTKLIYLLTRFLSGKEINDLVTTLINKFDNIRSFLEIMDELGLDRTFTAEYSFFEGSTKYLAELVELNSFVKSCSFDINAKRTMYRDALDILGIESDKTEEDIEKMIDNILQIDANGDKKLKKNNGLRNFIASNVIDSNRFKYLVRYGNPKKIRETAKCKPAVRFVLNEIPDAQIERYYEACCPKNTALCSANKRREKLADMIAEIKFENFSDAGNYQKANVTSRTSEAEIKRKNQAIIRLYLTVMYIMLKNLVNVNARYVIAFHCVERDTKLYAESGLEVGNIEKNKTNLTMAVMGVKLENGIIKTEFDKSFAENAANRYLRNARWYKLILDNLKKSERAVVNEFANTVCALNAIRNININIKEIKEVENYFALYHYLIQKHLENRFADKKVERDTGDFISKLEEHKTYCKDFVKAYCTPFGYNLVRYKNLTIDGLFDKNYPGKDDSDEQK", "assay": "crRNA (strand 1, pre-loaded); Mg2+; 40 mM Tris-HCl pH 7.5, 150 mM NaCl, 6 mM MgCl2, 1 mM DTT, 0.1% Tween-20, 0.2 mg/ml BSA; 25 C; 10 min per concentration, then washed", "conditions": "tags: His6-TwinStrep-SUMO cleaved; N-terminal SNAP kept (SNAP-Surface 488); label: 3' end held by stalled T7 RNA polymerase", "units": {"Kd": "nM"}, "values": [
      {"binder": "B1", "Kd": "7.9 ± 1.3"},
      {"binder": "B2", "Kd": "8.2 ± 1.7"},
      {"binder": "B3", "Kd": "7.3 ± 0.9"},
      {"binder": "B4", "Kd": "15 ± 4"},
      {"binder": "B5", "Kd": "9.8 ± 1.1"},
      {"binder": "B6", "Kd": "7.3 ± 0.9"},
      {"binder": "B7", "Kd": "7.5 ± 1.6"},
      {"binder": "B8", "Kd": "9.4 ± 1.7"},
      {"binder": "B9", "Kd": "18 ± 3.5"},
      {"binder": "B10", "Kd": "12.6 ± 2.3"},
      {"binder": "B11", "Kd": "24 ± 2.8"},
      {"binder": "B12", "Kd": "20.9 ± 2.2"},
      {"binder": "B13", "Kd": "2.77 ± 0.2"},
      {"binder": "B14", "Kd": "41 ± 11"},
      {"binder": "B15", "Kd": "1.8 ± 0.4"},
      {"binder": "B16", "Kd": "~70"},
      {"binder": "B17", "Kd": "14.6 ± 0.7"}
    ]}
  ]
}
